According to patent US20180085432A1, “STING (Stimulator of Interferon Genes), A Regulator of Innate Immune Responses” (University of Miami, priority 2008, published 2018):

T1: STING (Mus musculus, UniProt Q3TBT3)
T1 construct: expressed in transfected cells
T1 sequence (Q3TBT3 1-378): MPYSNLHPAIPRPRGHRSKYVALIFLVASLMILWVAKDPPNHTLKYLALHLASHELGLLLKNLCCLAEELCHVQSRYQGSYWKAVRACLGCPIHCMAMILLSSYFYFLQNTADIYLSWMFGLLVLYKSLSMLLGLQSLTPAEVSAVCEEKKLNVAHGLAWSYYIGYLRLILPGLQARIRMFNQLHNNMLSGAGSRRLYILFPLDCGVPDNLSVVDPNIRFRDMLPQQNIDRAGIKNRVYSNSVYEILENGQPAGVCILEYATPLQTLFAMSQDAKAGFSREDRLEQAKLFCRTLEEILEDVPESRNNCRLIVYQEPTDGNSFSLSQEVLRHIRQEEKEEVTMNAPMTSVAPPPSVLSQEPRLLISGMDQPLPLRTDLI

B1: ULK2 (enzyme)
chain: MEVVGDFEYSKRDLVGHGAFAVVFRGRHRQKTDWEVAIKSINKKNLSKSQILLGKEIKILKELQHENIVALYDVQELPNSVFLVMEYCNGGDLADYLQAKGTLSEDTIRVFLHQIAAAMRILHSKGIIHRDLKPQNILLSYANRRKSSVSGIRIKIADFGFARYLHSNMMAATLCGSPMYMAPEVIMSQHYDAKADLWSIGTVIYQCLVGKPPFQANSPQDLRMFYEKNRSLMPSIPRETSPYLANLLLGLLQRNQKDRMDFEAFFSHPFLEQGPVKKSCPVPVPMYSGSVSGSSCGSSPSCRFASPPSLPDMQHIQEENLSSPPLGPPNYLQVSKDSASTSSKNSSCDTDDFVLVPHNISSDHSCDMPVGTAGRRASNEFLVCGGQCQPTVSPHSETAPIPVPTQIRNYQRIEQNLTSTASSGTNVHGSPRSAVVRRSNTSPMGFLRPGSCSPVPADTAQTVGRRLSTGSSRPYSPSPLVGTIPEQFSQCCCGHPQGHDSRSRNSSGSPVPQAQSPQSLLSGARLQSAPTLTDIYQNKQKLRKQHSDPVCPSHTGAGYSYSPQPSRPGSLGTSPTKHLGSSPRSSDWFFKTPLPTIIGSPTKTTAPFKIPKTQASSNLLALVTRHGPAEE
B2: ULK1 (enzyme)
chain: MEPGRGGTETVGKFEFSRKDLIGHGAFAVVFKGRHREKHDLEVAVKCINKKNLAKSQTLLGKEIKILKELKHENIVALYDFQEMANSVYLVMEYCNGGDLADYLHAMRTLSEDTIRLFLQQIAGAMRLLHSKGIIHRDLKPQNILLSNPAGRRANPNSIRVKIADFGFARYLQSNMMAATLCGSPMYMAPEVIMSQHYDGKADLWSIGTIVYQCLTGKAPFQASSPQDLRLFYEKNKTLVPTIPRETSAPLRQLLLALLQRNHKDRMDFDEFFHHPFLDASPSVRKSPPVPVPSYPSSGSGSSSSSSSTSHLASPPSLGEMQQLQKTLASPADTAGFLHSSRDSGGSKDSSCDTDDFVMVPAQFPGDLVAEAPSAKPPPDSLMCSGSSLVASAGLESHGRTPSPSPPCSSSPSPSGRAGPFSSSRCGASVPIPVPTQVQNYQRIERNLQSPTQFQTPRSSAIRRSGSTSPLGFARASPSPPAHAEHGGVLARKMSLGGGRPYTPSPQVGTIPERPGWSGTPSPQGAEMRGGRSPRPGSSAPEHSPRTSGLGCRLHSAPNLSDLHVVRPKLPKPPTDPLGAVFSPPQASPPQPSHGLQSCRNLRGSPKLPDFLQRNPLPPILGSPTKAVPSFDFPKTPSSQNLLALLARQ

Assays:
STING [1] = target: STING (Homo sapiens, UniProt Q86WV6); assay: STING cell based assay, drug library screen
STING [2] = target: T1, STING; assay: STING trafficking in MEFs stably transfected with HA-STING after ISD stimulation; format: cell-based, murine; conditions: Brefeldin A (0.1 ng/ml) or chloroquine (0.1 mM) for 1 hour prior to ISD stimulation
Method: FIG. 32B: MEFs stably transfected with HA-STING were treated with Brefeldin A (0.1 ng/ml) or chloroquine (0.1 mM) for 1 hour prior to ISD stimulation (3 hours 1 ng/ml in Lipofectamine 2000). Green=anti-HA and red=anti-calreticulin. FIG. 32C: Wild type MEFs were treated with Brefeldin A as above and IFNβ mRNA measured. FIGS. 32D, 32E: 293T cells were treated with various concentrations of Brefeldin A as above were co-transfected with STING, constitutively active IRF3 or IRF7 and IFN-luciferase reporter plasmid. Luciferase was measured after 24 hours. FIGS. 32F, 32G: Macrophages treated with various chloroquine amounts for one hour were treated with ISD (1 ng/ml), poly (dAT-dAT) [1 ng/ml] or LPS (1ng/ml) and after 16 hours IFNβ or IL6 measured by ELISA. FIG. 32H: STING^−/− MEFS were transfected with HA-STING or HA-STINGΔSP (that lacks the first 36 amino acids representing a potential signal peptide motif) for 24 hours prior to treatment with ISD (1 ng/ml). After 3 hours STING localization was measured using immunofluorescence and an anti-HA antibody (green) or anti calreticulin antibody (red). FIG. 32I: 293T cells were co-transfected with HA-STING or HA-STINGΔSP and an IFN-Luciferase plasmid and after 24 hours luciferase was measured. […] Asterisks indicate significant difference (P<0.05) as determined by Student's t-test. Error bars indicate s.d. […]

A366 peptide = assay: screening of kinases for S366 of STING (33P-ATP); format: biochemical; conditions: kinase mixed with peptide and 33P-ATP
Method: (§1) The activity of 217 protein kinase targets were evaluated against 2 peptides (A366 and S366) as substrate. Protein kinases were mixed with each peptide and ^33P-ATP and then activity (CPM) was measured. The below kinases were identified as phosphorylating S366 in STING. Identification of kinases which target this serine opens up novel avenues for drug discovery. Drugs that target this association may inhibit STING activity and be used for therapeutic purposes to inhibit STING activity. STING over activity may lead to inflammatory diseases which can exacerbate cancer.

S366 peptide = assay: screening of kinases for S366 of STING (33P-ATP); format: biochemical; conditions: for Fold inducton: S366 peptide vs A366 peptide; for Activity, S366 peptide: kinase mixed with peptide and 33P-ATP
Method: as §1

Chain of STING (Homo sapiens, UniProt Q86WV6) (Q86WV6 whole entry): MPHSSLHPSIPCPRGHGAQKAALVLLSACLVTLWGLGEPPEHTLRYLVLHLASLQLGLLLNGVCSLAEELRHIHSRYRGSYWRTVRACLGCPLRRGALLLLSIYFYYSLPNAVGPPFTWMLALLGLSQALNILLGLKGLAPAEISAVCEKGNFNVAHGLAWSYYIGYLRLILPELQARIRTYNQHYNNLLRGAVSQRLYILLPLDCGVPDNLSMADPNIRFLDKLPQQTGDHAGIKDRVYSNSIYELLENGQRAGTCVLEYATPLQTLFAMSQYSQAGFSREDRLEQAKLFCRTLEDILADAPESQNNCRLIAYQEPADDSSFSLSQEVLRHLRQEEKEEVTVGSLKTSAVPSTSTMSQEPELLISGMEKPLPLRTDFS

Molecule	Activators of STING (STING [1])	STING trafficking (STING [2])	Activity (cpm), kinase mixed with peptide and 33P-ATP (A366 peptide of STING) [cpm]	Activity (cpm), kinase mixed with peptide and 33P-ATP (S366 peptide of STING) [cpm]	Activity, A366 peptide (A366 peptide) [cpm]	Fold inducton (S366 peptide)	Activity, S366 peptide (S366 peptide) [cpm]
C[C@@H]1O[C@@H](O[C@H]2C[C@@H](O)[C@]3(CO)[C@H]4[C@H](O)C[C@]5(C)[C@@H]([C@@H]6COC(=O)C6)CC[C@]5(O)[C@@H]4CC[C@]3(O)C2)[C@H](O)[C@H](O)[C@H]1O [dihydroouabain]	Activators of STING	–	–	–	–	–	–
CCN(CC)CCCC(C)Nc1ccnc2cc(Cl)ccc12 (centres unmarked) [chloroquine]	–	but not chloroquine blocked STING trafficking	–	–	–	–	–
O=C(O)/C=C\C(=O)O.O=C1/C(=C/c2ccccc2)C[C@@]2(O)[C@H]3Cc4ccc(O)c5c4[C@@]2(CCN3CC2CC2)[C@H]1O5 [BNTX maleate salt hydrate]	Activators of STING	–	–	–	–	–	–
C[C@H]1CCC/C=C/[C@@H]2C[C@H](O)C[C@H]2[C@H](O)/C=C/C(=O)O1 [Brefeldin A]	–	blocked STING trafficking	–	–	–	–	–
B1	–	–	7380	15600	7377	21.13	15580
B2	–	–	12200	209000	12221	17.10	209014
